Consider two molecules from paper PMC12422189, “Molecular exaptation by the integrin αI domain” (Science Advances, 2025).

One may read the Kd as the free concentration of one partner at which half of the binding sites on the other are occupied at equilibrium, for simple one-to-one binding.

For assay [1], the target named is integrin αLβ2 with the αL internal ligand IEGT replaced by VDGT (UniProt P20701). The assay can be described thus: flow cytometry on cells; HEK293T cells transfected with αL variants and β2; 20 mM tris-HCl pH 7.4, 150 mM NaCl, 1 mM MgCl2 + 1 mM MnCl2; purified His-tagged ICAM-1 ectodomain at 20 μg/ml, 1 hour at 37°C; read with iFluor 647 anti-His tag antibody; percent positive cells normalized to wild type. For orientation: Flow cytometry measures light scatter and fluorescence of single cells or particles in a stream.

Assay [2] concerns the target T1, Fc-tagged E-cadherin ectodomain (UniProt P12830 155-698).
T1 construct: Fc tag amplified from Addgene plasmid 145164; E-cadherin insert a gift from B. Gumbiner; Captured on Protein A biosensors by the Fc; also called Human Fc-tagged E-cadherin ectodomain; source: ExpiCHO, secreted, purified (HiTrap Protein G, Superdex 200); not shown: Fc (human), C-terminal, kept
T1 sequence (looked up): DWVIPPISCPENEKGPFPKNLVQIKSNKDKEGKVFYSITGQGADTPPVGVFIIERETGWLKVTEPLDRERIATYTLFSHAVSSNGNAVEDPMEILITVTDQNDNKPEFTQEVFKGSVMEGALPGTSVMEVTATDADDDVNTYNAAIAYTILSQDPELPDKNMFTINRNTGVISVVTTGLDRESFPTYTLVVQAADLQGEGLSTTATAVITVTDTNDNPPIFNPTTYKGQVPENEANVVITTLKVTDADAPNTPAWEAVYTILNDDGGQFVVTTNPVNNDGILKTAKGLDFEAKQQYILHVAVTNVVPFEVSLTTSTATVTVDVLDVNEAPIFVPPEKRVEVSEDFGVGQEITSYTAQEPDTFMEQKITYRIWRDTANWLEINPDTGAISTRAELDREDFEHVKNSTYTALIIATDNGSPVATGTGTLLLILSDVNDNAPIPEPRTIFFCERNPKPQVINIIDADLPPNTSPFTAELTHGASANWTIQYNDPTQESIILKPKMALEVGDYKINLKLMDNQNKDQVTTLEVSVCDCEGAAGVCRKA
The experiment in a line: BLI; Octet RED, 25°C; Fc-tagged E-cadherin ectodomain loaded on Protein A biosensors; αEβ7 in solution, two-fold series 500 to 16.125 nM; activating buffer with 0.1% BSA and 0.02% Tween 20; 1:1 model, global fit of three replicates. Particulars: both partners purified. Background: In BLI a coated tip is dipped into the sample, and binding shifts an interference pattern.

Sequence of integrin αLβ2 with the αL internal ligand IEGT replaced by VDGT (P20701 26-1170, chain 1 of 2): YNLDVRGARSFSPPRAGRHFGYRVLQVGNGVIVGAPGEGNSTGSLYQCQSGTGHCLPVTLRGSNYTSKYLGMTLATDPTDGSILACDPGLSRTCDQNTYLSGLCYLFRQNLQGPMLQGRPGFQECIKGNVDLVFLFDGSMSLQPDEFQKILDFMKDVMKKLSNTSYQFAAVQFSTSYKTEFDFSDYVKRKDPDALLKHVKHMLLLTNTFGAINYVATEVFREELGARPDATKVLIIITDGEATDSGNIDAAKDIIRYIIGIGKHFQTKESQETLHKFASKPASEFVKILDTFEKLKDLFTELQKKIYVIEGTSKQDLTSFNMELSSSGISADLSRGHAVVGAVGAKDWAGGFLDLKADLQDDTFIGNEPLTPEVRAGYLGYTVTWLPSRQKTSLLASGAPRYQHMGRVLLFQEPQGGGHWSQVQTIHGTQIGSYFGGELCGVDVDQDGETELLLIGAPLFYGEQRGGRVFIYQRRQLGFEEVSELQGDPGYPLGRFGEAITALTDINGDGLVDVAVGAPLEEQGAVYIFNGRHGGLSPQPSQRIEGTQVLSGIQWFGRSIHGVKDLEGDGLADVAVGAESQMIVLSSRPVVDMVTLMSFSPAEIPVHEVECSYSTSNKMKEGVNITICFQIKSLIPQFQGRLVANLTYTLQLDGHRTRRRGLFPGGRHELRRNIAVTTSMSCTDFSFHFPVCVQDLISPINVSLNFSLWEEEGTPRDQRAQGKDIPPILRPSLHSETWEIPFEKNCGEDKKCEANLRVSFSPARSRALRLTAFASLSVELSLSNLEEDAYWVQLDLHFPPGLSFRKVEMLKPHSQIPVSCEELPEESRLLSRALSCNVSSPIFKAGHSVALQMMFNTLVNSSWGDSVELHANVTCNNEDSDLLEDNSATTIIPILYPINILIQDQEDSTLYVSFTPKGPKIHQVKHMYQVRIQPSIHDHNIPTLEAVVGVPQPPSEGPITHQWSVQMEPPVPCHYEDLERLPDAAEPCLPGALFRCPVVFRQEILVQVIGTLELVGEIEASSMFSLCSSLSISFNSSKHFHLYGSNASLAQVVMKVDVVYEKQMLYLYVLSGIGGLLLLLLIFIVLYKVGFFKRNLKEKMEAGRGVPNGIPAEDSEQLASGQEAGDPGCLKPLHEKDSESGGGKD
Sequence of integrin αLβ2 with the αL internal ligand IEGT replaced by VDGT (P05107 23-769, chain 2 of 2, further chain): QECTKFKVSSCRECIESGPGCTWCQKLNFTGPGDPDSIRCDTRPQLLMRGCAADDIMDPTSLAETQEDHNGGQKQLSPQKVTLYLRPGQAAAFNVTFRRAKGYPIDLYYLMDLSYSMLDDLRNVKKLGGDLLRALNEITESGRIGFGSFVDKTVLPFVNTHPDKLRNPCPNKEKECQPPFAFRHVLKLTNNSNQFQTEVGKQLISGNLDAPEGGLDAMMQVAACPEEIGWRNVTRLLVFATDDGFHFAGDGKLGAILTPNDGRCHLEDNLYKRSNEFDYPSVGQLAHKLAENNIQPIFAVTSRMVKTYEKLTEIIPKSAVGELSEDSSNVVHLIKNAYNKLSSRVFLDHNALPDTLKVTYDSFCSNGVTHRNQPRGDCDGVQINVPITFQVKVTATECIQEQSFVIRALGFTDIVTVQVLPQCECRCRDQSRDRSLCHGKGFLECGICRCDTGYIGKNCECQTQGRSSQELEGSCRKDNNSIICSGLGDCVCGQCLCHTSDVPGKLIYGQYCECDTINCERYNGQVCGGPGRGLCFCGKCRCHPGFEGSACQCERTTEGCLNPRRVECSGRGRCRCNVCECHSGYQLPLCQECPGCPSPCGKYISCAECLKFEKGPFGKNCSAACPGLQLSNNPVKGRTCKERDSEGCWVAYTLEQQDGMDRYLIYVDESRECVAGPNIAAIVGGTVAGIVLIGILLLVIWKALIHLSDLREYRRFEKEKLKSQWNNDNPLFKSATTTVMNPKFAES

As for “intercellular adhesion molecule-1 (ICAM-1) ectodomain, His-tagged (from UniProt P05362 28-480) (ligand)”, the ligand binding, percent of wild type in assay [1] came to 60%.

B1: integrin αEβ7 (as used for biolayer interferometry) (complex)
chain 1: FNVDVARPWLTPKGGAPFVLSSLLHQDPSTNQTWLLVTSPRTKRTPGPLHRCSLVQDEILCHPVEHVPIPKGRHRGVTVVRSHHGVLICIQVLVRRPHSLSSELTGTCSLLGPDLRPQAQANFFDLENLLDPDARVDTGDCYSNKEGGGEDDVNTARQRRALEKEEEEDKEEEEDEEEEEAGTEIAIILDGSGSIDPPDFQRAKDFISNMMRNFYEKCFECNFALVQYGGVIQTEFDLRDSQDVMASLARVQNITQVGSVTKTASAMQHVLDSIFTSSHGSRRKASKVMVVLTDGGIFEDPLNLTTVINSPKMQGVERFAIGVGEEFKSARTARELNLIASDPDETHAFKVTNYMALDGLLSKLRYNIISMEGTVGDALHYQLAQIGFSAQILDERQVLLGAVGAFDWSGGALLYDTRSRRGRFLNQTAAAAADAEAAQYSYLGYAVAVLHKTCSLSYIAGAPRYKHHGAVFELQKEGREASFLPVLEGEQMGSYFGSELCPVDIDMDGSTDFLLVAAPFYHVHGEEGRVYVYRLSEQDGSFSLARILSGHPGFTNARFGFAMAAMGDLSQDKLTDVAIGAPLEGFGADDGASFGSVYIYNGHWDGLSASPSQRIRASTVAPGLQYFGMSMAGGFDISGDGLADITVGTLGQAVVFRSRPVVRLKVSMAFTPSALPIGFNGVVNVRLCFEISSVTTASESGLREALLNFTLDVDVGKQRRRLQCSDVRSCLGCLREWSSGSQLCEDLLLMPTEGELCEEDCFSNASVKVSYQLQTPEGQTDHPQPILDRYTEPFAIFQLPYEKACKNKLFCVAELQLATTVSQQELVVGLTKELTLNINLTNSGEDSYMTSMALNYPRNLQLKRMQKPPSPNIQCDDPQPVASVLIMNCRIGHPVLKRSSAHVSVVWQLEENAFPNRTADITVTVTNSNERRSLANETHTLQFRHGFVAVLSKPSIMYVNTGQGLSHHKEFLFHVHGENLFGAEYQLQICVPTKLRGLQVVAVKKLTRTQASTVCTWSQERACAYSSVQHVEEWHSVSCVIASDKENVTVAAEISWDHSEELLKDVTELQILGEISFNKSLYEGLNAENHRTKITVVFLKDEKYH
chain 2: ELDAKIPSTGDATEWRNPHLSMLGSCQPAPSCQKCILSHPSCAWCKQLNFTASGEAEARRCARREELLARGCPLEELEEPRGQQEVLQDQPLSQGARGEGATQLAPQRVRVTLRPGEPQQLQVRFLRAEGYPVDLYYLMDLSYSMKDDLERVRQLGHALLVRLQEVTHSVRIGFGSFVDKTVLPFVSTVPSKLRHPCPTRLERCQSPFSFHHVLSLTGDAQAFEREVGRQSVSGNLDSPEGGFDAILQAALCQEQIGWRNVSRLLVFTSDDTFHTAGDGKLGGIFMPSDGHCHLDSNGLYSRSTEFDYPSVGQVAQALSAANIQPIFAVTSAALPVYQELSKLIPKSAVGELSEDSSNVVQLIMDAYNSLSSTVTLEHSSLPPGVHISYESQCEGPEKREGKAEDRGQCNHVRINQTVTFWVSLQATHCLPEPHLLRLRALGFSEELIVELHTLCDCNCSDTQPQAPHCSDGQGHLQCGVCSCAPGRLGRLCECSVAELSSPDLESGCRAPNGTGPLCSGKGHCQCGRCSCSGQSSGHLCECDDASCERHEGILCGGFGRCQCGVCHCHANRTGRACECSGDMDSCISPEGGLCSGHGRCKCNRCQCLDGYYGALCDQCPGCKTPCERHRDCAECGAFRTGPLATNCSTACAHTNVTLALAPILDDGWCKERTLDNQLFFFLVEDDARGTVVLRVRPQEKGADH
modifications: Wild-type αE taken for BLI: the paper assigns wild-type to the E-cadherin complex and RRtoGG (R177G/R178G) only to the Fab complex; the BLI section does not state which was used. Signal peptides …
For the molecule B1, the Kd in assay [2] amounted to 51 ± 7.9 nM.
